Results taken from article PMC9341007 (Structure (London, England : 1993), 2022).

Target: equine ACE2 peptidase domain (horse (Equus caballus), UniProt A0A9L0TPT7 19-615)
Assay: SPR

B1: hCoV-NL63 spike receptor-binding domain (domain or fragment)
chain: QHTDINFTATASFGGSCYVCKPHQVNISLNGNTSVCVRTSHFSIRYIYNRVKSGSPGDSSWHIYLKSGTCPFSFSKLNNFQKFKTICFSTVEVPGSCNFPLEATWHYTSYTIVGALYVTWSEGNSITGVPYPVSGI
Binder B1 has a Kd of 0.106 µM.
